What all share (assay): cryo-EM structure
Data set [1] has as its target VP5* of S567C-A590C VP4 (foot-locked mutant), on recoated TLPs (rhesus rotavirus (RRV, G3 serotype)).
Data set [2] has as its target VP6 of rhesus rotavirus, in DLPs and TLPs (rhesus rotavirus (RRV, G3 serotype)).
Data set [3] has the same target. This is another data set of the same source.
Data set [4] shares this target. This is another data set of the same source.
Data set [5] deals with the molecule itself.
Data set [6] deals with VP5* on native RRV TLPs (rhesus rotavirus (RRV, G3 serotype), UniProt P12473 248-776).
Data set [7] deals with the molecule itself. The source holds these as a separate data set.

The values below come from article PMC8297411 (Nature, 2021).

Where two headings read alike, the source gives them in different places.

The molecule “VP5* of S567C-A590C VP4 (foot-locked mutant), on recoated TLPs (domain or fragment)” gave a stoichiometry N in data set [1] of 3.
As to “VP6 of rhesus rotavirus, in DLPs and TLPs (natural protein)”, the stoichiometry N in data set [2], in data set [3] and in data set [4] was 3 throughout.

B1: VP7 of rhesus rotavirus, recombinant, wild type (natural protein, rhesus rotavirus (RRV, G3 serotype), UniProt P12476 51-326, looked up)
chain: QNYGINLPITGSMDTAYANSTQEETFLTSTLCLYYPTEAATEINDNSWKDTLSQLFLTKGWPTGSVYFKEYTDIASFSVDPQLYCDYNVVLMKYDATLQLDMSELADLILNEWLCNPMDITLYYYQQTDEANKWISMGSSCTIKVCPLNTQTLGIGCLTTDTATFEEVATAEKLVITDVVDGVNHKLDVTTATCTIRNCKKLGPRENVAVIQVGGSDVLDITADPTTAPQTERMMRINWKKWWQVFYTVVDYVNQIIQAMSKRSRSLNSAAFYYRI
As for B1, in data set [5], the “stoichiometry N” value was 3.

B2: VP7 on native RRV TLPs (natural protein, rhesus rotavirus (RRV, G3 serotype), UniProt P12476 51-326, looked up)
chain: B1 chain
B2: the binding result in data set [6] is “binds”.

B3: VP5* (C-terminal trypsin cleavage fragment of rhesus rotavirus VP4), wild type, on recoated TLPs (domain or fragment, rhesus rotavirus (RRV, G3 serotype), UniProt P12473 248-776, looked up)
chain: AQANEDIVVSKTSLWKEMQYNRDITIRFKFASSIVKSGGLGYKWSEISFKPANYQYTYTRDGEDVTAHTTCSVNGMNDFNFNGGSLPTDFIISRYEVIKENSYVYVDYWDDSQAFRNMVYVRSLAANLNSVICTGGDYSFALPVGQWPVMTGGAVSLHSAGVTLSTQFTDFVSFNSLRFRFRLTVEEPSFSITRTRVGGLYGLPAAYPNNGKEYYEVAGRLSLISLVPSNDDYQTPITNSVTVRQDLERQLGELREEFNALSQEIAMSQLIYLALLPLDMFSMFSGIKSTIDAAKSMATSVMKKFKKSGLANSVSTLTDSLSDAASSISRGASIRSVGSSASAWTDVSTQITDVSSSVSSISTQTSTISRRLRLKEMATQTEGMNFDDISAAVLKTKIDRSTQISPNTLPDIVTEASEKFIPNRAYRVINNDEVFEAGTDGRYFAYRVETFDEIPFDVQKFADLVTDSPVISAIIDFKTLKNLNDNYGISRQQAFNLLRSDPRVLREFINQDNPIIRNRIEQLIMQCRL
Turning to B3, the “stoichiometry N” value in data set [7] stood at 3.
